Where a chain is given by its changes, count along the chain named.
B1: SEQ67 aptamer (ssRNA)
RNA: GGGAGAACUUCGACCAGAAGUCGAUAACGAACAAAACUCCCAAAGGAAUAUAUGUGCGCAUACAUGGAUCCUCA
modifications: 2'-F pyrimidines
B2: SEQ40 aptamer (ssRNA)
RNA: GGGAGAACUUCGACCAGAAGUUUGAAAAAAACCCAGGAAAAUGGAAGACGUAUGUGCGCAUACAUGGAUCCUCA
modifications: 2'-F pyrimidines
B3: SEQ62 aptamer (ssRNA)
RNA: GGGAGAACUUCGACCAGAAGUUUGAAAGAAACCCAAAUUAAAGUGAACAGUAUGUGCGCAUACAUGGAUCCUCA
modifications: 2'-F pyrimidines
B4: SEQ71 mosaic aptamer (mixed)
DNA: GGGAGAGGCAAGAATAGGGCACTTGAAAAAAACCCAAATTTACCGTCTTCAGCGTCGGGTGTGAAGAGAAGAGACATTAGGA
modifications: purines ribo, pyrimidines (C,T) deoxy
B5: SEQ68 aptamer (ssRNA)
RNA: B1 RNA with U25G, A27G, C32A, A33G, G45A, G46C, A48C, U49A, A50G
modifications: 2'-F all pyrimidines
B6: SEQ67 aptamer (ssRNA)
RNA: B1 RNA
modifications: 2'-F all pyrimidines
B7: SEQ72 mosaic aptamer (mixed)
DNA: GGGAGAGGCAAGAATAGGGCTGGATGGGCAGTAACCTGAAAAAAACCACCCACCTCTACCGTGAAGAGAAGAGACATTAGGA
modifications: purines ribo, pyrimidines (C,T) deoxy
B8: SEQ69 mosaic aptamer (mixed)
DNA: GGGAGAGGCAAGAATAGGGCCCAGCTGAAAAAAACCTGGACGTACACCGTTCGCCGAGCGGGTGAAGAGAAGAGACATTAGGA
modifications: purines ribo, pyrimidines (C,T) deoxy
B9: SEQ39 aptamer (ssRNA)
RNA: GGGAGAACUUCGACCAGAAGUGUGAAAAGAACCCAAAUAAAACAACAAUGUAUGUGCGCAUACAUGGAUCCUCA
modifications: 2'-F all pyrimidines
B10: SEQ58 aptamer (ssRNA)
RNA: B9 RNA with G22U, A40C, A42G, C43A, A45U, C46A
modifications: 2'-F all pyrimidines
B11: SEQ54 aptamer (ssRNA)
RNA: GGGAGAACUUCGACCAGAAGUCGAAAGUGAAAGAAACUCCAACGAAAGCAUAUGUGCGCAUACAUGGAUCCUCA
modifications: 2'-F all pyrimidines
B12: SEQ86 aptamer (ssRNA)
RNA: GGGAGAACUUCGACCAGAAGGAGUAGCCAGUGAACCUGGAAUAUGAAAAAAACCUUAUGUGCGCAUACAUGGAUCCUC
modifications: 2'-F all pyrimidines
B13: SEQ64 aptamer (ssRNA)
RNA: B2 RNA with A28G, G36A, G37A, A39C, A41U, G43A, A45C, G47C, G50A
modifications: 2'-F all pyrimidines
B14: SEQ42 aptamer (ssRNA)
RNA: B2 RNA with G36A, G37A, A39G, A41G, U42C, G43A, A45C, C49G, G50A
modifications: 2'-F all pyrimidines
B15: SEQ40 aptamer (ssRNA)
RNA: B2 RNA
modifications: 2'-F all pyrimidines
B16: SEQ80 aptamer (ssRNA)
RNA: GGGAGAACUUCGACCAGAAGUGAAAACAACCUCCCAAUAAUGAUCACAGAAAUCCUAUGUGCGCAUACAUGGAUCCUC
modifications: 2'-F all pyrimidines
B17: SEQ70 mosaic aptamer (mixed)
DNA: GGGAGAGGCAAGAATAGGGCTGGAAATAGAACCGCGCTGTCTTCATTAAGCCGCCCAACGGTGAAGAGAAGAGACATTAGGA
modifications: purines ribo, pyrimidines (C,T) deoxy
B18: SEQ77 aptamer (ssRNA)
RNA: GGGAGAACUUCGACCAGAAGUGAAAAAAUCUCCAGUUGCAAGACGAAACAAACCUUAUGUGCGCAUACAUGGAUCCUC
modifications: 2'-F all pyrimidines
B19: SEQ73 mosaic aptamer (mixed)
DNA: GGGAGAGGCAAGAATAGGGCACTTGAAAAAAACCCAAAGAAAGAATACTTACCCGGCGCGTGAAGAGAAGAGACATTAGGA
modifications: purines ribo, pyrimidines (C,T) deoxy
B20: SEQ81 aptamer (ssRNA)
RNA: GGGAGAACUUCGACCAGAAGGAGAUGACUGUGUAACCACAGUAUGAAAUAAACUCUAUGUGCGCAUACAUGGAUCCUC
modifications: 2'-F all pyrimidines
B21: SEQ78 aptamer (ssRNA)
RNA: GGGAGAACUUCGACCAGAAGUGUGUAUUGUUCAGGGUGUGCCCAGCCUAUAACCAUAUGUGCGCAUACAUGGAUCCUC
modifications: 2'-F all pyrimidines
B22: SEQ41 aptamer (ssRNA)
RNA: B9 RNA with G22U, A28G, U38G, A39C, A40G, C43A, A44C, C46A, U49C
modifications: 2'-F all pyrimidines
B23: SEQ62 aptamer (ssRNA)
RNA: B3 RNA
modifications: 2'-F all pyrimidines
B24: SEQ37 aptamer (ssRNA)
RNA: B3 RNA with U38G, U39G, A40U, A41G, G43A, U44A, G45C, G50A
modifications: 2'-F all pyrimidines
B25: SEQ83 aptamer (ssRNA)
RNA: GGGAGAACUUCGACCAGAAGUUGAAGCUUGAAAAAAACCCAGGAUUAAACAGACAGUAUGUGCGCAUACAUGGAUCCUC
modifications: 2'-F all pyrimidines
B26: SEQ38 aptamer (ssRNA)
RNA: GGGAGAACUUCGACCAGAAGAGAAUGAAACUCCACAAAGUACAUAAAACAUAUGUGCGCAUACAUGGAUCCUCA
modifications: 2'-F all pyrimidines
B27: SEQ57 aptamer (ssRNA)
RNA: GGGAGAACUUCGACCAGAAGUUUGAAAAAAACCCAAACACCGAAGCACAAAUAUGUGCGCAUACAUGGAUCCUCA
modifications: 2'-F all pyrimidines
B28: SEQ82 aptamer (ssRNA)
RNA: GGGAGAACUUCGACCAGAAGAGGAUGCUUGUUUGGUUACAAGCUGAAAGAAACCUUAUGUGCGCAUACAUGGAUCCUC
modifications: 2'-F all pyrimidines
B29: SEQ52 aptamer (ssRNA)
RNA: GGGAGAACUUCGACCAGAAGUUUGAAAGAAACCCAAAUAUACAAAACACUAUGUGCGCAUACAUGGAUCCUCA
modifications: 2'-F all pyrimidines
B30: SEQ74 mosaic aptamer (mixed)
DNA: GGGAGAGGCAAGAATAGGGCATAGTGTAGACCCCTCTCAAGATACCCCATGAATTGCCCCGTGAAGAGAAGAGACATTAGGA
modifications: purines ribo, pyrimidines (C,T) deoxy
B31: SEQ51 aptamer (ssRNA)
RNA: GGGAGAACUUCGACCAGAAGUUUGAAAGAAACCCAAAAAAACAACAUAUGAACUAUGUGCGCAUACAUGGAUCCUCA
modifications: 2'-F all pyrimidines
B32: SEQ75 aptamer (ssRNA)
RNA: GGGAGAACUUCGACCAGAAGUGAAAGAAUCUCCAAAGACAAGAUAAAAACAACCGUAUGUGCGCAUACAUGGAUCCUC
modifications: 2'-F all pyrimidines
B33: SEQ49 aptamer (ssRNA)
RNA: GGGAGAACUUCGACCAGAAGUGAAAGAAACUCCCAAGACGGUAACGAAAGUAUGUGCGCAUACAUGGAUCCUCA
modifications: 2'-F all pyrimidines
B34: SEQ85 aptamer (ssRNA)
RNA: GGGAGAACUUCGACCAGAAGCGGAAGCCUGCGUAACCGCAGGAUGAAAACAACCGUAUGUGCGCAUACAUGGAUCCUC
modifications: 2'-F all pyrimidines
B35: SEQ76 aptamer (ssRNA)
RNA: GGGAGAACUUCGACCAGAAGGAUAAACGCAUGUAUUUGCAGUAUUAAAAAUGCCUUAUGUGCGCAUACAUGGAUCCUC
modifications: 2'-F all pyrimidines
B36: SEQ79 aptamer (ssRNA)
RNA: GGGAGAACUUCGACCAGAAGGAUAGCCAUGUGGAGGUGAAGACUGAAAUAAACCAUAUGUGCGCAUACAUGGAUCCUC
modifications: 2'-F all pyrimidines

Target: T1, beta-NGF (nerve growth factor) (Homo sapiens, UniProt P01138 P01138:122-241)
Test: cell_activity; Neuroscreen-1 neurite outgrowth
Conditions: tags: R&D Systems human NGF; chain copies: 2
Procedure: The neurite outgrowth inhibitory activity of aptamer was evaluated by using Neuroscreen-1 cell, which is a subclone of PC-12 cells. 2500 Cells per well were cultured for one day in an RPMI-1640 medium containing 2.5% horse serum and 1.25% fetal bovine serum in a 96 well flat-bottom plate coated with collagen type IV. A mixed solution of NGF (final concentration 15 ng/ml or 1.1 nM) prereacted in a serum-free RPMI-1640 medium at room temperature or 37° C. for 30 min to 1 hr and an aptamer (final concentration 500-3 nM) was added. Two or three days later, the cytoplasm and nuclei were stained using Cellomics Neurite Outgrowth Kits (manufactured by Thermo Scientific), and neurite length per cell was measured by Cellomics ArrayScan VTI (manufactured by Thermo Scientific). With the neurite length per cell obtained by culturing the cell for 2 days with the addition of NGF alone as inhibitory activity 0%, and that of the cell obtained by NGF free culture as inhibitory activity 100%, the inhibitory activity of the aptamer was calculated from the neurite length per cell obtained by culturing with the addition of NGF and the aptamer in mixture. […] When the inhibitory activity was 0% or below, ‘0%’ is indicated. When it was not less than 100%, ‘100%’ is indicated. The 50% inhibitory concentration was determined from the concentrations at two, above and below points sandwiching the 50% inhibitory activity.

T1 sequence (P01138 122-241, one chain of several): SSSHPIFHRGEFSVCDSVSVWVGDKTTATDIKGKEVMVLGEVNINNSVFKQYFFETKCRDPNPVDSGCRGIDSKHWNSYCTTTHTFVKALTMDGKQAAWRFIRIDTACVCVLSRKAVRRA

Row | Binder | IC50 [nM]
1 | B1 | 2.7
2 | B2 | 2.4
3 | B3 | 2

Target: T1, beta-NGF (nerve growth factor)
Test: SPR; blocks NGF-TrkA and NGF-P75
Conditions: tags: R&D Systems; chain copies: 2
Procedure: As directed in BIAcore Company's protocol, Protein A (21181, PIERCE) was immobilized on a CM5 sensor chip. About 1100 RU of human Trk A-Fc fused with the Fc portion of IgG (175-TK, R&D systems) was immobilized thereon. As the analyte, a mixture of NGF (0.1 μM) and each aptamer (0.33 μM) was injected after being allowed to stand for 30 minutes. […] When NGF binds stronger to a receptor than an aptamer, the aptamer may be removed and NGF may bind to the receptor. […] Using the binding amount of NGF and NGF receptor without an aptamer as 100, the binding amount of NGF and NGF receptor added with an aptamer was determined as a correction value. Here, the binding amount is the RU value at the peak top of the sensorgram of BIAcore (RU value immediately after completion of NGF injection). […] A similar experiment was performed for another receptor P75 (p75-Fc; R&D systems).

Row | Binder | activity [% inhibition]
4 | B4 | ≥ 60
5 | B5 | ≥ 60
6 | B6 | ≥ 60
7 | B7 | ≥ 60
8 | B8 | ≥ 60
9 | B9 | ≥ 60
10 | B10 | ≥ 60
11 | B11 | ≥ 60
12 | B12 | ≥ 60
13 | B13 | ≥ 60
14 | B14 | ≥ 60
15 | B15 | ≥ 60
16 | B16 | ≥ 60
17 | B17 | ≥ 60
18 | B18 | ≥ 60
19 | B19 | ≥ 60
20 | GGGAAGCCUGUGGAGCUGCAGGAUGAAAAAAACCCAAA (ssRNA, 2'-F all pyrimidines) [SEQ35 aptamer] | ≥ 60

Row | Binder | activity [% inhibition]
21 | B20 | ≥ 60
22 | B21 | ≥ 60
23 | B22 | ≥ 60
24 | B23 | ≥ 60
25 | B24 | ≥ 60
26 | B25 | ≥ 60
27 | B26 | ≥ 60
28 | B27 | ≥ 60
29 | B28 | ≥ 60
30 | B29 | ≥ 60
31 | B30 | ≥ 60
32 | B31 | ≥ 60
33 | B32 | ≥ 60
34 | B33 | ≥ 60
35 | B34 | ≥ 60
36 | B35 | ≥ 60
37 | B36 | ≥ 60
